{
  "source": "paper PMC9876797",
  "about": "“Structures of the holo CRISPR RNA-guided transposon integration complex” (Nature, 2022)",
  "key": {"[1]": {"molecular_target": "TnsC (ShCAST AAA+ regulator) (Scytonema hofmannii)"}, "[2]": {"molecular_target": "T1, ShCAST transpososome (TnsC in complex with TnsB, TniQ, Cas12k and S15) (Scytonema hofmannii, UniProt A0A8J0PCL3)", "T1 construct": "recombinant proteins from E. coli, TwinStrep-SUMO vectors; assembled on sgRNA and strand-transfer DNA; about 961 kDa; 12 TnsC (major) or 13 TnsC (minor); S15 from E. coli K-12 MG1655; with Transposase TnsB; TniQ family protein TniQ; CRISPR-associated effector Cas12k; Small ribosomal subunit protein uS15 (Escherichia coli K-12 MG1655)", "T1 sequence (A0A8J0PCL3 entry or part of it)": "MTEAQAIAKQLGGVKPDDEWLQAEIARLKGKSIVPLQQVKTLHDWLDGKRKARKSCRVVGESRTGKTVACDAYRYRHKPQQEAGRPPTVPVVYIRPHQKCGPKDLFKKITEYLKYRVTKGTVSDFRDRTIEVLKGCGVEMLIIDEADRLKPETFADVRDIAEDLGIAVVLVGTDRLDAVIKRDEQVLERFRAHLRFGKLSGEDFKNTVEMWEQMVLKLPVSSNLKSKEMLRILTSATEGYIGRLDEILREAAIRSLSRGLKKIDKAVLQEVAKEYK", "T1 sequence (A0A979HMQ2 entry or part of it, further chain)": "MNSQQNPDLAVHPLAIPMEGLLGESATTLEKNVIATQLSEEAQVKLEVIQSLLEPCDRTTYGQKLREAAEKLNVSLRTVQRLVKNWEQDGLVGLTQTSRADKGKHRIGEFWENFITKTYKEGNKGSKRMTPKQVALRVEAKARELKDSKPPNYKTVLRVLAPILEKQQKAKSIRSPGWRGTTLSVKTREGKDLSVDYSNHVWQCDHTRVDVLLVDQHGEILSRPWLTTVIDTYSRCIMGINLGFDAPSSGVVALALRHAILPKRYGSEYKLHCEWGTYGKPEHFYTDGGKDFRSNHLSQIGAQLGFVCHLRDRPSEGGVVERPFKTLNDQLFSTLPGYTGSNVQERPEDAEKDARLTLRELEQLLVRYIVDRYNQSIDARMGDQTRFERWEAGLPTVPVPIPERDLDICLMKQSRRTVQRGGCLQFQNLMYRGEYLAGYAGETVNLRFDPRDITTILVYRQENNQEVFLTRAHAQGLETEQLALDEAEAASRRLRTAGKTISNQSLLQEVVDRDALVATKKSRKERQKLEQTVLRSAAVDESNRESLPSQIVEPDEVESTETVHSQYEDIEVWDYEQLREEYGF", "T1 sequence (A0A8J0PCL5 entry or part of it, further chain)": "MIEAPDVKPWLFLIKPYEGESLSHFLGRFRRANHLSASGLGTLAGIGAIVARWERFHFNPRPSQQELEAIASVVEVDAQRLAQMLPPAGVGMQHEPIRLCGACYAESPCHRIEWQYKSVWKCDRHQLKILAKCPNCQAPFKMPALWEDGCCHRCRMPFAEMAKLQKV", "T1 sequence (A0A8M0FGU0 entry or part of it, further chain)": "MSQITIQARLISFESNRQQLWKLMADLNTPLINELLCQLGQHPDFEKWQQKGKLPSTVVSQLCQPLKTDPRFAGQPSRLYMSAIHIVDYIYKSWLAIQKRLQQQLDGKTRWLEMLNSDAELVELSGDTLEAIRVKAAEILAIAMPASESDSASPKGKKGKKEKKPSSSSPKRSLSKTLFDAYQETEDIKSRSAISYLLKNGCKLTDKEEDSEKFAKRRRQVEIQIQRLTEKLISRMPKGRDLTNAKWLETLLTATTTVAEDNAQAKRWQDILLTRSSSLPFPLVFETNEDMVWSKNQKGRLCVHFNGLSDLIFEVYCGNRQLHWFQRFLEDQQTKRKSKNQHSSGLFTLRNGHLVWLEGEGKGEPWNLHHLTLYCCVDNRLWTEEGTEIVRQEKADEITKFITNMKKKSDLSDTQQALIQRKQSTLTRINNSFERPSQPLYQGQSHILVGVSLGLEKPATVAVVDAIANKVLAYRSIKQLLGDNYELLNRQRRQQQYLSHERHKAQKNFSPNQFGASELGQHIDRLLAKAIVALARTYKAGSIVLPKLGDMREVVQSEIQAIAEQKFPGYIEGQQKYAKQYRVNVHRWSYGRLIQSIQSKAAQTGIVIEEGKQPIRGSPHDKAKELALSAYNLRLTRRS", "experiment": "cryo-EM structure", "assay_type": "binding", "details": "ATP with Mg2+ in all TnsC protomers; 1 mM ATP, 15 mM MgCl2, pH 7.5; also minor configuration 8EA4"}, "[3]": {"molecular_target": "TnsC (ShCAST AAA+ regulator) (Scytonema hofmannii)", "experiment": "cryo-EM structure; ShCAST transpososome assembled stepwise on streptavidin beads through desthiobiotinylated target-pot DNA (Cas12k-sgRNA, S15, TniQ, TnsC, 1 mM ATP, then TnsB with donor-pot DNA), 37 °C, 20 mM HEPES pH 7.5, 250 mM KCl, 15 mM MgCl2, eluted with biotin; major (12 TnsC) and minor (13 TnsC) configurations from one data set"}, "[4]": {"molecular_target": "TnsB (ShCAST transposase), wild type (Scytonema hofmannii)", "experiment": "cryo-EM structure; ShCAST transpososome assembled stepwise on streptavidin beads through desthiobiotinylated target-pot DNA (Cas12k-sgRNA, S15, TniQ, TnsC, 1 mM ATP, then TnsB with donor-pot DNA), 37 °C, 20 mM HEPES pH 7.5, 250 mM KCl, 15 mM MgCl2, eluted with biotin; major (12 TnsC) and minor (13 TnsC) configurations from one data set"}},
  "note": "Where “and” joins values, the source holds several entries; their conditions need not be identical. Equal entries are not always repeated.",
  "data": [
    {"compound": "TnsB Y439A (enzyme)", "values": [
      {"measurement": "on-target percentage of in vitro transposition (Illumina sequencing), in the absence of S15", "setting": "[1]", "result": "< 6", "unit": "%"}
    ]},
    {"compound": "TnsB R432A (enzyme)", "values": [
      {"measurement": "on-target percentage of in vitro transposition (Illumina sequencing), in the absence of S15", "setting": "[1]", "result": "< 6", "unit": "%"}
    ]},
    {"compound": "Nc1ncnc2c1ncn2[C@@H]1O[C@H](COP(=O)(O)OP(=O)(O)OP(=O)(O)O)[C@@H](O)[C@H]1O", "note": "[ATP]", "values": [
      {"measurement": "cryo-EM structure", "setting": "[2]", "result": "This improved map demonstrates that ATP is bound to all protomers"}
    ]},
    {"compound": "TnsC (ShCAST AAA+ regulator) (natural protein)", "values": [
      {"measurement": "stoichiometry N", "setting": "[3]", "result": "12 and 13"}
    ]},
    {"compound": "TnsB (ShCAST transposase), wild type (enzyme)", "values": [
      {"measurement": "on-target percentage of in vitro transposition (Illumina sequencing), in the absence of S15", "setting": "[1]", "result": 69, "unit": "%"},
      {"measurement": "on-target percentage of in vitro transposition (Illumina sequencing), with S15", "setting": "[1]", "result": 99, "unit": "%"},
      {"measurement": "stoichiometry N", "setting": "[4]", "result": 4}
    ]}
  ]
}
